The record followed here is paper PMC11926245, “Structural recognition and stabilization of tyrosine hydroxylase by the J-domain protein DNAJC12” (Nature Communications, 2025).

In this test the target is Tyrosine hydroxylase, wild-type (hTH1) (human) (UniProt P07101). Description: BLI; biotinylated TH or TH variant immobilised on streptavidin sensors; DNAJC12 or variant 0.01-4 μM in solution; PBS, 0.02% Tween-20, 0.5 mg/mL BSA, 25 °C; responses fitted to a one-site hyperbola. For orientation: BLI is a label-free optical method that tracks binding on a fibre tip over time.

For orientation: Kd means the equilibrium constant for the complex coming apart. Read a low Kd as tighter binding.

Chain of DNAJC12(1-107) (Q9UKB3 1-107): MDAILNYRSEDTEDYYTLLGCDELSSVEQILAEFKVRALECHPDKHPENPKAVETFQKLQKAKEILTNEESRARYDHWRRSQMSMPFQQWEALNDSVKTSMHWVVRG

For “DNAJC12(1-107) (from UniProt Q9UKB3-1 1-107) (domain or fragment)”, the Kd amounted to 3.99 µM.
